From article PMC9371972, “Cryo-EM structure of the human CST–Polα/primase complex in a recruitment state” (Nature Structural & Molecular Biology, 2022)

T1: POLA1^FL (subunit of PP^FL) (human, UniProt P09884 1-1462)
T1 construct: the POLA1 chain of m3; Always present with POLA2, PRIM1 and PRIM2; written alone for subunit-to-subunit cross-links; source: Tni insect cells (baculovirus), purified as part of PP^FL
T1 sequence (looked up): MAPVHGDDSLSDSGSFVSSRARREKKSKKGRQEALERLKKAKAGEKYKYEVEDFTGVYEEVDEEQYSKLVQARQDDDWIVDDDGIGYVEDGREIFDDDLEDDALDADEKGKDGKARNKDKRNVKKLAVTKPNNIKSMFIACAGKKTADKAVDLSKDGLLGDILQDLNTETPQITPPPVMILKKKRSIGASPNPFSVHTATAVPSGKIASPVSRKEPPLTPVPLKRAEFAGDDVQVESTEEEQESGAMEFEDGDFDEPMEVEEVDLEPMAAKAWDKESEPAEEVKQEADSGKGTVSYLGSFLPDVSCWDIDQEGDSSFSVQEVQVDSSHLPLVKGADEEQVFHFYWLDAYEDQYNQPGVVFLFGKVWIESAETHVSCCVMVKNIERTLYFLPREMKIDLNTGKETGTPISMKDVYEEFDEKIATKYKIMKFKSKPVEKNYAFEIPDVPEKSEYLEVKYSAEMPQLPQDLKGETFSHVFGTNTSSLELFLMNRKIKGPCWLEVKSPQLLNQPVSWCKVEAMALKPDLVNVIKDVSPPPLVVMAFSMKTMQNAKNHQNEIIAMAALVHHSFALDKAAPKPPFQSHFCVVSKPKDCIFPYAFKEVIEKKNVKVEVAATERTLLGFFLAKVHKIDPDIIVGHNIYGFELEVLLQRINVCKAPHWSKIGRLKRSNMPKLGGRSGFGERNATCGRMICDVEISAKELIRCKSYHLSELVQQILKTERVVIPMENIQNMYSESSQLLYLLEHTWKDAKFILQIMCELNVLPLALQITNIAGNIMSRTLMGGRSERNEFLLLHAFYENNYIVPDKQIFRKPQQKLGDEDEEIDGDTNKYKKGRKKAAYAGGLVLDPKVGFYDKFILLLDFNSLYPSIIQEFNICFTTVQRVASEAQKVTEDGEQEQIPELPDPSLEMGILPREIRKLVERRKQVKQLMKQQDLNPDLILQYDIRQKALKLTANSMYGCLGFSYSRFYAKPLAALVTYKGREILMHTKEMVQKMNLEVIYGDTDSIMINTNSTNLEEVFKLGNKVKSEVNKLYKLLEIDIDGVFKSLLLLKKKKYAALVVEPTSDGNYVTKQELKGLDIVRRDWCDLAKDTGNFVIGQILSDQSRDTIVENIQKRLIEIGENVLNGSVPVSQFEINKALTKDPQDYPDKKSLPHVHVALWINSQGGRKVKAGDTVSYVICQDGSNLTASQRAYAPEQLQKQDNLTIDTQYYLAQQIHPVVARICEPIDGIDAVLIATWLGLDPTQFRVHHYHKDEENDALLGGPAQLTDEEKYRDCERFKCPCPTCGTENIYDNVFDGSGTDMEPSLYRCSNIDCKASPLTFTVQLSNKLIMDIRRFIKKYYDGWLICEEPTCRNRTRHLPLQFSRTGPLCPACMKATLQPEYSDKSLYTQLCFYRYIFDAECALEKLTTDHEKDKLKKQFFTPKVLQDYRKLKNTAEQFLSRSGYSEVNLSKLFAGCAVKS

B1: CTC1 (subunit of the CST complex) (natural protein, human)
chain: MAAGRAQVPSSEQAWLEDAQVFIQKTLCPAVKEPNVQLTPLVIDCVKTVWLSQGRNQGSTLPLSYSFVSVQDLKTHQRLPCCSHLSWSSSAYQAWAQEAGPNGNPLPREQLLLLGTLTDLSADLEQECRNGSLYVRDNTGVLSCELIDLDLSWLGHLFLFPRWSYLPPARWNSSGEGHLELWDAPVPVFPLTISPGPVTPIPVLYPESASCLLRLRNKLRGVQRNLAGSLVRLSALVKSKQKAYFILSLGRSHPAVTHVSIIVQVPAQLVWHRALRPGTAYVLTELRVSKIRGQRQHVWMTSQSSRLLLLKPECVQELELELEGPLLEADPKPLPMPSNSEDKKDPESLVRYSRLLSYSGAVTGVLNEPAGLYELDGQLGLCLAYQQFRGLRRVMRPGVCLQLQDVHLLQSVGGGTRRPVLAPCLRGAVLLQSFSRQKPGAHSSRQAYGASLYEQLVWERQLGLPLYLWATKALEELACKLCPHVLRHHQFLQHSSPGSPSLGLQLLAPTLDLLAPPGSPVRNAHNEILEEPHHCPLQKYTRLQTPSSFPTLATLKEEGQRKAWASFDPKALLPLPEASYLPSCQLNRRLAWSWLCLLPSAFCPAQVLLGVLVASSHKGCLQLRDQSGSLPCLLLAKHSQPLSDPRLIGCLVRAERFQLIVERDVRSSFPSWKELSMPGFIQKQQARVYVQFFLADALILPVPRPCLHSATPSTPQTDPTGPEGPHLGQSRLFLLCHKEALMKRNFCVPPGASPEVPKPALSFYVLGSWLGGTQRKEGTGWGLPEPQGNDDNDQKVHLIFFGSSVRWFEFLHPGQVYRLIAPGPATPMLFEKDGSSCISRRPLELAGCASCLTVQDNWTLELESSQDIQDVLDANKSLPESSLTDLLSDNFTDSLVSFSAEILSRTLCEPLVASLWMKLGNTGAMRRCVKLTVALETAECEFPPHLDVYIEDPHLPPSLGLLPGARVHFSQLEKRVSRSHNVYCCFRSSTYVQVLSFPPETTISIPLPHIYLAELLQGGQSPFQATASCHIVSVFSLQLFWVCAYCTSICRQGKCTRLGSTCPTQTAISQAIIRLLVEDGTAEAVVTCRNHHVAAALGLCPREWASLLDFVQVPGRVVLQFAGPGAQLESSARVDEPMTMFLWTLCTSPSVLRPIVLSFELERKPSKIVPLEPPRLQRFQCGELPFLTHVNPRLRLSCLSIRESEYSSSLGILASSC
notes: human CTC1; the CTC1 chain of m1; Always present with STN1 and TEN1; written alone for subunit-to-subunit contacts; source: Tni insect cells (baculovirus), purified as part of CST; not shown: His6, N-terminal, cleaved; MBP, N-terminal, cleaved
B2: His6-MBP-PreSc-POLA1^N (domain or fragment, human, UniProt P09884 1-339, looked up)
chain: MAPVHGDDSLSDSGSFVSSRARREKKSKKGRQEALERLKKAKAGEKYKYEVEDFTGVYEEVDEEQYSKLVQARQDDDWIVDDDGIGYVEDGREIFDDDLEDDALDADEKGKDGKARNKDKRNVKKLAVTKPNNIKSMFIACAGKKTADKAVDLSKDGLLGDILQDLNTETPQITPPPVMILKKKRSIGASPNPFSVHTATAVPSGKIASPVSRKEPPLTPVPLKRAEFAGDDVQVESTEEEQESGAMEFEDGDFDEPMEVEEVDLEPMAAKAWDKESEPAEEVKQEADSGKGTVSYLGSFLPDVSCWDIDQEGDSSFSVQEVQVDSSHLPLVKGADEEQ
notes: human POLA1 N-terminal region, POLA1^N, 1–339 aa in the methods (1–335 aa in the results); MBP served as a mass label in negative-stain EM; also called MBP-POLA1^N; MBP-tagged POLA1^N; source: Tni insect cells (baculovirus), purified (Ni-NTA, SEC); not shown: His6, N-terminal, kept; MBP, N-terminal, kept

Key:
Conditions in all cases: both partners purified
[1] = molecular target: T1, POLA1^FL (subunit of PP^FL); assay: cross-linking; CX-MS of the SEC-reconstituted CST–PP^FL complex with DSS (0.35–0.75 mM, 25 °C, 30 min), 1 mg/mL
[2] = molecular target: T2, CTC1–STN1–TEN1 (CST) complex (human, UniProt Q2NKJ3 1-1217; Q9H668 1-368; Q86WV5 1-123); assay: SEC; purified proteins mixed (PP^FL and CST equimolar; CST with twofold molar excess of His6-MBP-POLA1^N), 1 h at 4 °C, HiLoad Superdex 200 16/600 PG, 20 mM HEPES pH 7.5, 150 mM NaCl, 0.5 mM TCEP, 5% glycerol
T2 construct: human CTC1; human STN1; human TEN1; Expressed from pBIG1a(His6-MBP-PreSc-CTC1/STN1/TEN1); tag removed with rhinovirus 3C protease; source: Tni insect cells (baculovirus), purified (Ni-NTA, 3C protease cleavage, heparin, SEC); not shown: His6, N-terminal, cleaved; MBP, N-terminal, cleaved; copies: + +

[3] = molecular target: B1; assay: cross-linking; CX-MS of the SEC-reconstituted CST–POLA1^N complex with BS3 (0.35–0.75 mM, 25 °C, 30 min), 1 mg/mL

T2 sequence (Q9H668 whole entry, chain 2 of 2): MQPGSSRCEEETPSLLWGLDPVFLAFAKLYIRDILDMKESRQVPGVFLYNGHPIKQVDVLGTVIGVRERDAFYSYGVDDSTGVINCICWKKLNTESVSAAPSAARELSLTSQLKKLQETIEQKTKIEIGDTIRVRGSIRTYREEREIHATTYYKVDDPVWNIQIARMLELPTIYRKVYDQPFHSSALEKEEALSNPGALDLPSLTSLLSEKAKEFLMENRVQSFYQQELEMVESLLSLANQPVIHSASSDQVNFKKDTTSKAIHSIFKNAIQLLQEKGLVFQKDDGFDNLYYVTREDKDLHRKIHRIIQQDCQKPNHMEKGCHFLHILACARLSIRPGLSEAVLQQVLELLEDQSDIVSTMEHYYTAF
T2 sequence (Q86WV5 whole entry, chain 3 of 2): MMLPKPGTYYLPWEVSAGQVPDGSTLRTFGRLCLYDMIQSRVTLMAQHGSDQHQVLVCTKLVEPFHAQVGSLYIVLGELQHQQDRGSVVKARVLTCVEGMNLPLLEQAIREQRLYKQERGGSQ

| Binder | binding result [1] | binding result [2] | binding result [3] |
| --- | --- | --- | --- |
| B1 | binds | – | – |
| B2 | – | binds | binds |
